In paper PMC11629065:
Values belong to the molecule of their own block, whether it stands above or below them.

Legend:
[1] = biological target: IL1RL1 with the extracellular risk allele (rs1041973 [C]) and the TIR signalling domain risk haplotype (rs10192157 [C]) (human) (UniProt Q01638)
[2] = biological target: IL1RL1 with the extracellular risk allele (rs1041973 [C]) and the TIR signalling domain risk haplotype (rs10192157 [C]) (human) (UniProt Q01638); remark: listed apart in the source
[3] = biological target: IL1RL1 with the extracellular risk allele (rs1041973 [C]) and the protective TIR signalling domain haplotype (rs10192157 [T]) (human) (UniProt Q01638)

B1: IL33_(113–270) (ligand)
chain: ITGISPITEYLASLSTYNDQSITFALEDESYEIYVEDLKKDEKKDKVLLSYYESQHPSNESGDGVDGKMLMVTLSPTKDFWLHANNKEHSVELHKCEKPLPDQAFFVLHNMHSNCVSFECKTDPGVFIGVKDNHLALIKVDSSENLCTENILFKLSET
IL8 EC50 (IL8 ELISA of supernatant, transfected HEK293, risk:risk haplotype) [2]: 1.58 nM | IL8 in supernatant (ELISA) of HEK293 reporter cells transfected with IL1RL1, IL33 0.0001-50 ng/mL, 24 h; IL8 ELISA maximum [2]: 37.8 pg/µL | SEAP EC50 Risk:Risk (NF-κB SEAP reporter, transfected HEK293) [2]: 0.0135 nM | SEAP activity (NF-κB reporter) in supernatant of HEK293 reporter cells transfected with IL1RL1, IL33 0.0001-50 ng/mL, 24 h; SEAP maximum (OD) [2]: 2.6 OD | SEAP EC50 Risk:Prot (NF-κB SEAP reporter, transfected HEK293) [3]: 0.189 nM

B3: IL33_(99–270) (ligand)
chain: SGVQKYTRALHDSSITGISPITEYLASLSTYNDQSITFALEDESYEIYVEDLKKDEKKDKVLLSYYESQHPSNESGDGVDGKMLMVTLSPTKDFWLHANNKEHSVELHKCEKPLPDQAFFVLHNMHSNCVSFECKTDPGVFIGVKDNHLALIKVDSSENLCTENILFKLSET
IL8 EC50 (IL8 ELISA of supernatant, transfected HEK293, risk:risk haplotype) [2]: 29 nM | IL8 in supernatant (ELISA) of HEK293 reporter cells transfected with IL1RL1, IL33 0.0001-50 ng/mL, 24 h; IL8 ELISA maximum [2]: 42.9 pg/µL | SEAP EC50 Risk:Risk (NF-κB SEAP reporter, transfected HEK293) [2]: 0.0292 nM | SEAP activity (NF-κB reporter) in supernatant of HEK293 reporter cells transfected with IL1RL1, IL33 0.0001-50 ng/mL, 24 h; SEAP maximum (OD) [2]: 3.58 OD | SEAP EC50 Risk:Prot (NF-κB SEAP reporter, transfected HEK293) [3]: 0.0906 nM

B4: IL33_(95–270) (ligand)
chain: AFGISGVQKYTRALHDSSITGISPITEYLASLSTYNDQSITFALEDESYEIYVEDLKKDEKKDKVLLSYYESQHPSNESGDGVDGKMLMVTLSPTKDFWLHANNKEHSVELHKCEKPLPDQAFFVLHNMHSNCVSFECKTDPGVFIGVKDNHLALIKVDSSENLCTENILFKLSET
IL8 EC50 (IL8 ELISA of supernatant, transfected HEK293, risk:risk haplotype) [2]: 0.00074 nM | IL8 in supernatant (ELISA) of HEK293 reporter cells transfected with IL1RL1, IL33 0.0001-50 ng/mL, 24 h; IL8 ELISA maximum [2]: 49.7 pg/µL | SEAP EC50 Risk:Risk (NF-κB SEAP reporter, transfected HEK293) [2]: 0.00699 nM | SEAP activity (NF-κB reporter) in supernatant of HEK293 reporter cells transfected with IL1RL1, IL33 0.0001-50 ng/mL, 24 h; SEAP maximum (OD) [2]: 3.79 OD | SEAP EC50 Risk:Prot (NF-κB SEAP reporter, transfected HEK293) [3]: 0.0427 nM

Other lines, results leading:

IL8 in supernatant (ELISA) of HEK293 reporter cells transfected with IL1RL1; maximum as told in the text (differs from the table's cell) [1]: 28.1 pg/mL | IL8 EC50 (IL8 ELISA of supernatant, transfected HEK293, risk:risk haplotype) [2]: 1.5 nM | IL8 in supernatant (ELISA) of HEK293 reporter cells transfected with IL1RL1, IL33 0.0001-50 ng/mL, 24 h; IL8 ELISA maximum [2]: 28.1 pg/µL | SEAP EC50 Risk:Risk (NF-κB SEAP reporter, transfected HEK293) [2]: 0.0221 nM | SEAP activity (NF-κB reporter) in supernatant of HEK293 reporter cells transfected with IL1RL1, IL33 0.0001-50 ng/mL, 24 h; SEAP maximum (OD) [2]: 2.47 OD | SEAP EC50 Risk:Prot (NF-κB SEAP reporter, transfected HEK293) [3]: 0.0466 nM
Molecule: IL33 Exon 3,4 deletion variant (IL33_(Δ3,4)) (ligand)

IL8 EC50 (IL8 ELISA of supernatant, transfected HEK293, risk:risk haplotype) [2]: 0.00117 nM | IL8 in supernatant (ELISA) of HEK293 reporter cells transfected with IL1RL1, IL33 0.0001-50 ng/mL, 24 h; IL8 ELISA maximum [2]: 24.6 pg/µL | SEAP EC50 Risk:Risk (NF-κB SEAP reporter, transfected HEK293) [2]: 0.0147 nM | SEAP activity (NF-κB reporter) in supernatant of HEK293 reporter cells transfected with IL1RL1, IL33 0.0001-50 ng/mL, 24 h; SEAP maximum (OD) [2]: 3.07 OD | SEAP EC50 Risk:Prot (NF-κB SEAP reporter, transfected HEK293) [3]: 0.0712 nM
B2: IL33_(109–270) (ligand)
chain: HDSSITGISPITEYLASLSTYNDQSITFALEDESYEIYVEDLKKDEKKDKVLLSYYESQHPSNESGDGVDGKMLMVTLSPTKDFWLHANNKEHSVELHKCEKPLPDQAFFVLHNMHSNCVSFECKTDPGVFIGVKDNHLALIKVDSSENLCTENILFKLSET

IL8 EC50 (IL8 ELISA of supernatant, transfected HEK293, risk:risk haplotype) [2]: 0.0698 nM | IL8 in supernatant (ELISA) of HEK293 reporter cells transfected with IL1RL1, IL33 0.0001-50 ng/mL, 24 h; IL8 ELISA maximum [2]: 24.6 pg/µL | SEAP EC50 Risk:Risk (NF-κB SEAP reporter, transfected HEK293) [2]: 0.0462 nM | SEAP activity (NF-κB reporter) in supernatant of HEK293 reporter cells transfected with IL1RL1, IL33 0.0001-50 ng/mL, 24 h; SEAP maximum (OD) [2]: 3.28 OD | SEAP EC50 Risk:Prot (NF-κB SEAP reporter, transfected HEK293) [3]: 0.2 nM
B5: IL33_(112–270) (ABNOVA) (ligand)
chain: SITGISPITEYLASLSTYNDQSITFALEDESYEIYVEDLKKDEKKDKVLLSYYESQHPSNESGDGVDGKMLMVTLSPTKDFWLHANNKEHSVELHKCEKPLPDQAFFVLHNMHSNCVSFECKTDPGVFIGVKDNHLALIKVDSSENLCTENILFKLSET
